In the supplement of paper PMC9428881:
± gives the standard error.

assay: background-corrected fluorescence of 3'-dye-labeled ssDNA relative to brightest sequence (3'-GCGCG) (fraction); higher = brighter dye fluorescence (less quenching); conditions: dye: Cy5 (3' terminal)
How it was run: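 Each of 1024 permuted pentamers was synthesized as single-stranded DNA on glass slides by light-directed phosphoramidite chemistry, with a 3' Cy3 or Cy5 dye alongside. Arrays were scanned at 532 or 635 nm before and after overnight deprotection with ethylenediamine/ethanol. Values average 10 features per array across at least 3 syntheses. The fluorescence readout, with unlabeled-oligo background removed, is given relative to the brightest sequence.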

Sequence | background-corrected fluorescence
TTTTTTCATCATCATCATGCTTTTTTTTTTTTTTTGGGGA [AGGGG] | 0.757 ± 0.038
TTTTTTCATCATCATGAGCATTTTTTTTTTTTTTTGGGCT [TCGGG] | 0.442 ± 0.024
TTTTTTCATCATCATGATCATTTTTTTTTTTTTTTGGGCG [GCGGG] | 0.521 ± 0.062
TTTTTTCATCATCATGATGATTTTTTTTTTTTTTTGGGCC [CCGGG] | 0.367 ± 0.032
TTTTTTCATCATCATGATGCTTTTTTTTTTTTTTTGGGCA [ACGGG] | 0.505 ± 0.024
TTTTTTCATCATCATGCGCATTTTTTTTTTTTTTTGGGAT [TAGGG] | 0.506 ± 0.024
TTTTTTCATCATCATGCTCATTTTTTTTTTTTTTTGGGAG [GAGGG] | 0.478 ± 0.026
TTTTTTCATCATCATGCTGATTTTTTTTTTTTTTTGGGAC [CAGGG] | 0.401 ± 0.025
TTTTTTCATCATCATGCTGCTTTTTTTTTTTTTTTGGGAA [AAGGG] | 0.596 ± 0.068
TTTTTTCATCATGAGCAGCATTTTTTTTTTTTTTTGGCTT [TTCGG] | 0.405 ± 0.023
TTTTTTCATCATGAGCATCATTTTTTTTTTTTTTTGGCTG [GTCGG] | 0.364 ± 0.018
TTTTTTCATCATGAGCATGATTTTTTTTTTTTTTTGGCTC [CTCGG] | 0.337 ± 0.05
TTTTTTCATCATGAGCATGCTTTTTTTTTTTTTTTGGCTA [ATCGG] | 0.42 ± 0.028
TTTTTTCATCATGATCAGCATTTTTTTTTTTTTTTGGCGT [TGCGG] | 0.558 ± 0.057
TTTTTTCATCATGATCATCATTTTTTTTTTTTTTTGGCGG | 0.604 ± 0.054
TTTTTTCATCATGATCATGATTTTTTTTTTTTTTTGGCGC [CGCGG] | 0.551 ± 0.064
TTTTTTCATCATGATCATGCTTTTTTTTTTTTTTTGGCGA [AGCGG] | 0.618 ± 0.07
TTTTTTCATCATGATGAGCATTTTTTTTTTTTTTTGGCCT [TCCGG] | 0.386 ± 0.035
TTTTTTCATCATGATGATCATTTTTTTTTTTTTTTGGCCG [GCCGG] | 0.449 ± 0.043
TTTTTTCATCATGATGATGATTTTTTTTTTTTTTTGGCCC [CCCGG] | 0.312 ± 0.028
TTTTTTCATCATGATGATGCTTTTTTTTTTTTTTTGGCCA [ACCGG] | 0.425 ± 0.025
TTTTTTCATCATGATGCGCATTTTTTTTTTTTTTTGGCAT [TACGG] | 0.406 ± 0.025
TTTTTTCATCATGATGCTCATTTTTTTTTTTTTTTGGCAG [GACGG] | 0.426 ± 0.017

Sequence | background-corrected fluorescence
TTTTTTCATCATGATGCTGATTTTTTTTTTTTTTTGGCAC [CACGG] | 0.336 ± 0.03
TTTTTTCATCATGATGCTGCTTTTTTTTTTTTTTTGGCAA [AACGG] | 0.504 ± 0.041
TTTTTTCATCATGCGCAGCATTTTTTTTTTTTTTTGGATT [TTAGG] | 0.41 ± 0.061
TTTTTTCATCATGCGCATCATTTTTTTTTTTTTTTGGATG [GTAGG] | 0.388 ± 0.026
TTTTTTCATCATGCGCATGATTTTTTTTTTTTTTTGGATC [CTAGG] | 0.35 ± 0.055
TTTTTTCATCATGCGCATGCTTTTTTTTTTTTTTTGGATA [ATAGG] | 0.479 ± 0.045
TTTTTTCATCATGCTCAGCATTTTTTTTTTTTTTTGGAGT [TGAGG] | 0.537 ± 0.048
TTTTTTCATCATGCTCATCATTTTTTTTTTTTTTTGGAGG | 0.534 ± 0.029
TTTTTTCATCATGCTCATGATTTTTTTTTTTTTTTGGAGC [CGAGG] | 0.439 ± 0.029
TTTTTTCATCATGCTCATGCTTTTTTTTTTTTTTTGGAGA [AGAGG] | 0.594 ± 0.04
TTTTTTCATCATGCTGAGCATTTTTTTTTTTTTTTGGACT [TCAGG] | 0.412 ± 0.04
TTTTTTCATCATGCTGATCATTTTTTTTTTTTTTTGGACG [GCAGG] | 0.455 ± 0.019
TTTTTTCATCATGCTGATGATTTTTTTTTTTTTTTGGACC [CCAGG] | 0.317 ± 0.023
TTTTTTCATCATGCTGATGCTTTTTTTTTTTTTTTGGACA [ACAGG] | 0.435 ± 0.053
TTTTTTCATCATGCTGCGCATTTTTTTTTTTTTTTGGAAT [TAAGG] | 0.453 ± 0.043
TTTTTTCATCATGCTGCTCATTTTTTTTTTTTTTTGGAAG [GAAGG] | 0.445 ± 0.03
TTTTTTCATCATGCTGCTGATTTTTTTTTTTTTTTGGAAC [CAAGG] | 0.352 ± 0.019
TTTTTTCATCATGCTGCTGCTTTTTTTTTTTTTTTGGAAA [AAAGG] | 0.534 ± 0.035
TTTTTTCATGAGCAGCAGCATTTTTTTTTTTTTTTGCTTT [TTTCG] | 0.384 ± 0.038
TTTTTTCATGAGCAGCATCATTTTTTTTTTTTTTTGCTTG [GTTCG] | 0.343 ± 0.021
TTTTTTCATGAGCAGCATGATTTTTTTTTTTTTTTGCTTC [CTTCG] | 0.285 ± 0.024
TTTTTTCATGAGCAGCATGCTTTTTTTTTTTTTTTGCTTA [ATTCG] | 0.408 ± 0.03
TTTTTTCATGAGCATCAGCATTTTTTTTTTTTTTTGCTGT [TGTCG] | 0.458 ± 0.038

Sequence | background-corrected fluorescence
TTTTTTCATGAGCATCATCATTTTTTTTTTTTTTTGCTGG [GGTCG] | 0.47 ± 0.032
TTTTTTCATGAGCATCATGATTTTTTTTTTTTTTTGCTGC [CGTCG] | 0.403 ± 0.029
TTTTTTCATGAGCATCATGCTTTTTTTTTTTTTTTGCTGA [AGTCG] | 0.525 ± 0.036
TTTTTTCATGAGCATGAGCATTTTTTTTTTTTTTTGCTCT [TCTCG] | 0.337 ± 0.023
TTTTTTCATGAGCATGATCATTTTTTTTTTTTTTTGCTCG | 0.375 ± 0.033
TTTTTTCATGAGCATGATGATTTTTTTTTTTTTTTGCTCC [CCTCG] | 0.286 ± 0.021
TTTTTTCATGAGCATGATGCTTTTTTTTTTTTTTTGCTCA [ACTCG] | 0.386 ± 0.032
TTTTTTCATGAGCATGCGCATTTTTTTTTTTTTTTGCTAT [TATCG] | 0.376 ± 0.035
TTTTTTCATGAGCATGCTCATTTTTTTTTTTTTTTGCTAG [GATCG] | 0.422 ± 0.053
TTTTTTCATGAGCATGCTGATTTTTTTTTTTTTTTGCTAC [CATCG] | 0.338 ± 0.031
TTTTTTCATGAGCATGCTGCTTTTTTTTTTTTTTTGCTAA [AATCG] | 0.463 ± 0.032
TTTTTTCATGATCAGCAGCATTTTTTTTTTTTTTTGCGTT | 0.422 ± 0.024
TTTTTTCATGATCAGCATCATTTTTTTTTTTTTTTGCGTG [GTGCG] | 0.439 ± 0.023
TTTTTTCATGATCAGCATGATTTTTTTTTTTTTTTGCGTC [CTGCG] | 0.366 ± 0.028
TTTTTTCATGATCAGCATGCTTTTTTTTTTTTTTTGCGTA [ATGCG] | 0.466 ± 0.026
TTTTTTCATGATCATCAGCATTTTTTTTTTTTTTTGCGGT [TGGCG] | 0.566 ± 0.036
TTTTTTCATGATCATCATCATTTTTTTTTTTTTTTGCGGG [GGGCG] | 0.563 ± 0.045
TTTTTTCATGATCATCATGATTTTTTTTTTTTTTTGCGGC [CGGCG] | 0.506 ± 0.029
TTTTTTCATGATCATCATGCTTTTTTTTTTTTTTTGCGGA [AGGCG] | 0.689 ± 0.033
TTTTTTCATGATCATGAGCATTTTTTTTTTTTTTTGCGCT [TCGCG] | 0.485 ± 0.025
TTTTTTCATGATCATGATCATTTTTTTTTTTTTTTGCGCG | 1 ± 0.035
TTTTTTCATGATCATGATGATTTTTTTTTTTTTTTGCGCC [CCGCG] | 0.4 ± 0.041
